Data as given in PMC9312469.

Assays:
[1] = molecular target: PH-YFP (isolated PLCδ1 PH domain linked to a yellow fluorescent protein variant that lacks the A206K mutation) (UniProt P51178); test: fluorescence fluctuation spectroscopy (photon counting histogram); PH-YFP bound to POPC:PI(4,5)P2 (95:5) GUVs, 100 μM Ca2+; two-brightness population model
[2] = molecular target: PH-YFP (isolated PLCδ1 PH domain linked to a yellow fluorescent protein variant that lacks the A206K mutation) (UniProt P51178); test: fluorescence fluctuation spectroscopy (photon counting histogram); PH-YFP bound to POPC:PI(4,5)P2 (95:5) GUVs, 50 μM Ca2+; two-brightness population model
[3] = molecular target: PH-YFP (isolated PLCδ1 PH domain linked to a yellow fluorescent protein variant that lacks the A206K mutation) (UniProt P51178); test: fluorescence fluctuation spectroscopy (photon counting histogram); PH-YFP bound to POPC:PI(4,5)P2 (95:5) GUVs, 5 mM EDTA (0 μM Ca2+); two-brightness population model
[4] = molecular target: PH-YFP (isolated PLCδ1 PH domain linked to a yellow fluorescent protein variant that lacks the A206K mutation) (UniProt P51178); test: fluorescence fluctuation spectroscopy (photon counting histogram); PH-YFP bound to POPC:PI(4,5)P2 (95:5) GUVs, in the presence of Ca2+ (20, 50 and 100 μM taken together, on average); two-brightness population model
[5] = molecular target: PH-YFP (isolated PLCδ1 PH domain linked to a yellow fluorescent protein variant that lacks the A206K mutation) (UniProt P51178); test: fluorescence fluctuation spectroscopy (photon counting histogram); PH-YFP bound to POPC:PI(4,5)P2 (95:5) GUVs, 20 μM Ca2+; two-brightness population model

**Q.** For “PH-YFP (isolated PLCδ1 PH domain linked to a yellow fluorescent protein variant that lacks the A206K mutation) (from UniProt P51178 21-130)”, which F1 (Monomeric Population), fraction weighed by brightness [1] is on record?
**A.** 86.5%

**Q.** What about the F2 (Oligomeric Population), fraction weighed by brightness [1] of the same substance?
**A.** 13.5%

**Q.** What about the F1 (Monomeric Population), fraction weighed by brightness [2] of the same substance?
**A.** 82.5%

**Q.** And the F2 (Oligomeric Population), fraction weighed by brightness [2]?
**A.** 17.5%

**Q.** And the F1 (Monomeric Population), fraction weighed by brightness [3]?
**A.** 71.3%

**Q.** And the F2 (Oligomeric Population), fraction weighed by brightness [3]?
**A.** 28.7%

**Q.** And the brightness of the second population relative to the lower brightness (monomer) component [3]?
**A.** 2.3 fold

**Q.** And the stoichiometry N [3]?
**A.** 2

**Q.** What about the fraction of particles in the second (oligomeric) population [4] of the same substance?
**A.** < 5%

**Q.** And the F1 (Monomeric Population), fraction weighed by brightness [5]?
**A.** 99.3%

**Q.** And the F2 (Oligomeric Population), fraction weighed by brightness [5]?
**A.** 0.7%
